Consider twelve molecules from patent US20040018205A1.

Non-standard residues stand in square brackets, D forms with d. No end group written: not given here. Abu = CC[C@H](N)C(=O)O

The target in the first experiment is soluble HLA-A2.01 molecules. The experiment can be described thus: competition with 125I-F10V for HLA-A2.01, ratio peptide/125I-F10V 10/1.
AMPIGRIAE (modifications not checked) [A9E]: the percentage inhibition of the binding of 125I-F10V, ratio 10/1 was 47%.

Consider RIAEAILGM (modifications not checked) [R9M-5A], for which the percentage inhibition of the binding of 125I-F10V, ratio 10/1 worked out at 59%.

In the case of RIAESILGM (modifications not checked) [R9M-5S], the percentage inhibition of the binding of 125I-F10V, ratio 10/1 amounted to 74%.

Take RIAE[Abu]ILGM [R9M-5α-but]: the percentage inhibition of the binding of 125I-F10V, ratio 10/1 came out at 27%.

Take RIAECILGM (modifications not checked) [wildtype R9M peptide]: the percentage inhibition of the binding of 125I-F10V, ratio 10/1 was 64%.

For the molecule YIAEAILGM (modifications not checked) [Y9M-5A], the percentage inhibition of the binding of 125I-F10V, ratio 10/1 amounted to 79%.

As to YIAESILGM (modifications not checked) [Y9M-5S], the percentage inhibition of the binding of 125I-F10V, ratio 10/1 was found to be 25%.

As to YIAE[Abu]ILGM [Y9M-5α-but], the percentage inhibition of the binding of 125I-F10V, ratio 10/1 came out at 26%.

For another experiment, the target named is HLA-A2.01 molecule at the surface of T2 cells. The experiment can be described thus: T2 cell HLA-A2.01 stabilization; concentration ratio against the reference peptide for 20% of maximal stabilized molecules.
On to RIAEAILGM (modifications not checked) [R9M-5A], for which the RA was found to be 3.2.

Consider RIAE[Abu]ILGM [R9M-5α-but], for which the RA came to 2.

For the molecule RIAECILGM (modifications not checked) [wildtype R9M peptide], the RA turned out to be 2.9.

In the case of YIAEAILGM (modifications not checked) [Y9M-5A], the RA was 0.9.

Regarding YIAESILGM (modifications not checked) [Y9M-5S], the RA stood at 1.4.

Regarding YIAE[Abu]ILGM [Y9M-5α-but], the RA is 0.7.

For a further experiment the target is unchanged.
Test: not given
As for RIAESILGM (modifications not checked) [R9M-5S], the DC50 (half-life of the peptide-HLA-A2.1 complex) was found to be 2 h and the RA was determined as 2.2.

In the next experiment the target is soluble HLA-A2.01 molecules. The experiment can be described thus: competition with 125I-F10V for HLA-A2.01, ratio peptide/125I-F10V 25/1.
On to AMPIGRIAE (modifications not checked) [A9E], for which the percentage inhibition of the binding of 125I-F10V, ratio 25/1 worked out at 57%.

On to RIAEAILGM (modifications not checked) [R9M-5A], for which the percentage inhibition of the binding of 125I-F10V, ratio 25/1 is 72%.

Take RIAESILGM (modifications not checked) [R9M-5S]: the percentage inhibition of the binding of 125I-F10V, ratio 25/1 stood at 75%.

Consider RIAE[Abu]ILGM [R9M-5α-but], for which the percentage inhibition of the binding of 125I-F10V, ratio 25/1 was found to be 49%.

Turning to RIAECILGM (modifications not checked) [wildtype R9M peptide], the percentage inhibition of the binding of 125I-F10V, ratio 25/1 turned out to be 69%.

For the molecule YIAEAILGM (modifications not checked) [Y9M-5A], the percentage inhibition of the binding of 125I-F10V, ratio 25/1 came out at 87%.

As for YIAESILGM (modifications not checked) [Y9M-5S], the percentage inhibition of the binding of 125I-F10V, ratio 25/1 turned out to be 37%.

Consider YIAE[Abu]ILGM [Y9M-5α-but], for which the percentage inhibition of the binding of 125I-F10V, ratio 25/1 was determined as 26%.

Another experiment has as its target HLA-A2.01 molecule at the surface of T2 cells. The experiment can be described thus: T2 cells loaded overnight; residual surface complexes by indirect immunofluorescence and FACS at 0, 2, 4 and 5 h.
For YIAECILGM (modifications not checked) [Y9M], the DC50 (half-life of the peptide-HLA-A2.1 complex) was less than 2 h.

Consider YMPIGRIAE (modifications not checked) [Y9E], for which the DC50 (half-life of the peptide-HLA-A2.1 complex) is 0 h.

In turn, YIGRIAECI (modifications not checked) [Y9I] displayed a DC50 (half-life of the peptide-HLA-A2.1 complex) of less than 2 h.

RIAEAILGM (modifications not checked) [R9M-5A] registered a DC50 (half-life of the peptide-HLA-A2.1 complex) of less than 2 h.

In the case of PIGRIAECI (modifications not checked) [P9I], the DC50 (half-life of the peptide-HLA-A2.1 complex) was 0 h.

Molecule RIAE[Abu]ILGM [R9M-5α-but] displayed a DC50 (half-life of the peptide-HLA-A2.1 complex) of 2 h.

On to RIAECILGM (modifications not checked) [wildtype R9M peptide], for which the DC50 (half-life of the peptide-HLA-A2.1 complex) is less than 2 h.
